Experimental data published in patent publication US20110287001A1, “METHOD OF TREATMENT” (TETRALOGIC PHARMACEUTICALS, priority 2008, published 2011).

Columns and labels:
Test in all cases: ATPLITE cell viability, TRAIL and compound X with or without anti-human TNFα antibody
Assay type in all cases: cell-based
A375 melanoma cells = details: A375, 48 hours
Description: (§1) Cells were seeded in flat-bottom 96-well plates (clear bottom, white walls) at a concentration of 1×10^4 cells/well and incubated overnight at 37° C., 5% CO2. The following day, cells were stimulated with TRAIL at a concentration ranging from 0.24 ng/ml to 1 μg/ml (4-fold dilutions) in combination with IAP inhibitor compound X at a concentration ranging from 0.01 nM to […] (10-fold dilutions).
(§2) A blocking antibody to human TNFα (R&D Systems, Minneapolis, Minn.) was added to some cultures at a final concentration of 5 μg/ml two hours before the addition of the combination of TRAIL and compound X. Final culture volumes were 100 μl
(§3) After 48 hours, cell viability was determined using the ATPLITE™ assay, an adenosine triphosphate (ATP) monitoring system based on firefly (Photinus pyralis) luciferase (Perkin Elmer, Waltham, Mass.) according to the manufacturer's recommendations. Relative light units (RLU) were measured using an LJL Biosystems Analyst HT plate reader (Molecular Devices, Sunnyvale, Calif.). The percent of surviving cells was calculated as follows: (experimental RLU/control RLU)×100. The control RLU was determined by testing untreated cells.

[1] = tested on: HCT116 colon cancer cells
Description: as §1, §2, §3

[2] = tested on: SKOV-3 ovarian cancer cells; details: SKOV-3, 48 hours
Description: as §1, §2, §3

B1: TRAIL: TNF-related apoptosis-inducing ligand (TRAIL), TRAIL receptor agonist (protein, UniProt P50591 1-281, looked up)
Tumor necrosis factor ligand …: MAMMEVQGGPSLGQTCVLIVIFTVLLQSLCVAVTYVYFTNELKQMQDKYSKSGIACFLKEDDSYWDPNDEESMNSPCWQVKWQLRQLVRKMILRTSEETISTVQEKQQNISPLVRERGPQRVAAHITGTRGRSNTLSSPNSKNEKALGRKINSWESSRSGHSFLSNLHLRNGELVIHEKGFYYIYSQTYFRFQEEIKENTKNDKQMVQYIYKYTSYPDPILLMKSARNSCWSKDAEYGLYSIYQGGIFELKENDRIFVSVTNEHLIDMDHEASFFGAFLVG
A375 melanoma cells
  single agent killing: partialy resistant
[1]; HCT116, 48 hours
  single agent-induced cell death: some sensitivity
[1]; HCT116, TRAIL 1 μg/ml, 48 hours
  surviving cells (percent of control): 40%
[2]
  single agent-induced cell death: resistant
